# B1: 14-3-3 protein sigma (Homo sapiens), P31947 (parent)
# chain: MERASLIQKAKLAEQAERYEDMAAFMKGAVEKGEELSCEERNLLSVAYKNVVGGQRAAWRVLSSIEQKSNEEGSEEKGPEVREYREKVETELQGVCDTVLGLLDSHLIKEAGDAESRVFYLKMKGDYYRYLAEVATGDDKKRIIDSARSAYQEAMDISKKEMPPTNPIRLGLALNFSVFHYEIANSPEEAISLAKTTFDEAMADLHTLSEDSYKDSTLIMQLLRDNLTLWTADNAGEEGGEAPQEPQS
# Variants of: B1
# Details: with pak5_human PAK5, Q9P286
row,Variant,effect of a mutation on the interaction
1,K49E;R56E;V178D,decreasing interaction strength

# Variants of: B1
# Details: with cdk16_human CDK16, Q00536
row,Variant,effect of a mutation on the interaction
1,K49E;R56E;V178D,decreasing interaction strength

# Variants of: B1
# Details: with sik1_human SIK1, P57059
row,Variant,effect of a mutation on the interaction
1,K49E;R56E;V178D,decreasing interaction strength

# Variants of: B1
# Details: with mark3_human MARK3, P27448
row,Variant,effect of a mutation on the interaction
1,K49E;R56E;V178D,decreasing interaction strength

# Variants of: B1
# Details: with plk1_human PLK1, P53350
row,Variant,effect of a mutation on the interaction
1,K49E;R56E;V178D,decreasing interaction strength

# Variants of: B1
# Details: with cd28_human CD28, P10747
row,Variant,effect of a mutation on the interaction
1,K49E;R56E;V178D,decreasing interaction strength

# Variants of: B1
# Details: with srs10_human SRSF10, O75494
# Chain of srs10_human SRSF10, O75494 (O75494 whole entry): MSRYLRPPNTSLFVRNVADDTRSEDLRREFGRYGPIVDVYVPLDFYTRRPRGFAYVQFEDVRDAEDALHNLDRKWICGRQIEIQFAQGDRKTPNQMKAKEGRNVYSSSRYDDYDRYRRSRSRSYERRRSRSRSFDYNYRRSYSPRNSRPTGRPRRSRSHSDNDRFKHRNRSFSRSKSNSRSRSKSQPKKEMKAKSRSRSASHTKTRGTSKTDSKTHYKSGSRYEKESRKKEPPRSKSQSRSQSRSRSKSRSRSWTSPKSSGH
row,Variant,effect of a mutation on the interaction
1,K49E;R56E;V178D,decreasing interaction strength

# Variants of: B1
# Details: with pabp1_human PABPC1, P11940
# Chain of pabp1_human PABPC1, P11940 (P11940 whole entry): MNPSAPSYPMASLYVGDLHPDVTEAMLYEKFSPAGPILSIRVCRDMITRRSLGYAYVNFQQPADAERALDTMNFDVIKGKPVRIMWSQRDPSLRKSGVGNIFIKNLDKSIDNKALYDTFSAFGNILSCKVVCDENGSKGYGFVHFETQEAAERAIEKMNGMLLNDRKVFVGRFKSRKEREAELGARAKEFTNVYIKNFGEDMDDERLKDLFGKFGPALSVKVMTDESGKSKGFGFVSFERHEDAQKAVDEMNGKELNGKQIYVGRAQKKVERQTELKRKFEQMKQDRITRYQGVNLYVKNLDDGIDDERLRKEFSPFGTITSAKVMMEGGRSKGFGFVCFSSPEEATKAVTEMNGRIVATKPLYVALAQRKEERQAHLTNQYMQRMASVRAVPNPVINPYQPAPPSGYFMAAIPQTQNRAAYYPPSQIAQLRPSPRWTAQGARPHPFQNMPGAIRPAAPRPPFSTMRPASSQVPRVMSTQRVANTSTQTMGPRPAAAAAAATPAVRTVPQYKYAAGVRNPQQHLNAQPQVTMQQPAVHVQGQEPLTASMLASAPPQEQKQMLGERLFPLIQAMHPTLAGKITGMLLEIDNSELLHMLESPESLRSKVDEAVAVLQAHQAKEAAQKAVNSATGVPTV
row,Variant,effect of a mutation on the interaction
1,K49E;R56E;V178D,decreasing interaction strength

# Variants of: B1
# Details: with foxo3_human FOXO3, O43524
row,Variant,effect of a mutation on the interaction
1,K49E;R56E;V178D,decreasing interaction strength

# Variants of: B1
# Details: with hdac4_human HDAC4, P56524
row,Variant,effect of a mutation on the interaction
1,K49E;R56E;V178D,decreasing interaction strength

# Variants of: B1
# Details: with wdr62_human WDR62, O43379
row,Variant,effect of a mutation on the interaction
1,K49E;R56E;V178D,decreasing interaction strength

# Variants of: B1
# Details: with pml_human PML
row,Variant,effect of a mutation on the interaction
1,K49E;R56E;V178D,decreasing interaction strength

# Variants of: B1
# Details: with wwp2_human WWP2, O00308
# Chain of wwp2_human WWP2, O00308 (O00308 whole entry): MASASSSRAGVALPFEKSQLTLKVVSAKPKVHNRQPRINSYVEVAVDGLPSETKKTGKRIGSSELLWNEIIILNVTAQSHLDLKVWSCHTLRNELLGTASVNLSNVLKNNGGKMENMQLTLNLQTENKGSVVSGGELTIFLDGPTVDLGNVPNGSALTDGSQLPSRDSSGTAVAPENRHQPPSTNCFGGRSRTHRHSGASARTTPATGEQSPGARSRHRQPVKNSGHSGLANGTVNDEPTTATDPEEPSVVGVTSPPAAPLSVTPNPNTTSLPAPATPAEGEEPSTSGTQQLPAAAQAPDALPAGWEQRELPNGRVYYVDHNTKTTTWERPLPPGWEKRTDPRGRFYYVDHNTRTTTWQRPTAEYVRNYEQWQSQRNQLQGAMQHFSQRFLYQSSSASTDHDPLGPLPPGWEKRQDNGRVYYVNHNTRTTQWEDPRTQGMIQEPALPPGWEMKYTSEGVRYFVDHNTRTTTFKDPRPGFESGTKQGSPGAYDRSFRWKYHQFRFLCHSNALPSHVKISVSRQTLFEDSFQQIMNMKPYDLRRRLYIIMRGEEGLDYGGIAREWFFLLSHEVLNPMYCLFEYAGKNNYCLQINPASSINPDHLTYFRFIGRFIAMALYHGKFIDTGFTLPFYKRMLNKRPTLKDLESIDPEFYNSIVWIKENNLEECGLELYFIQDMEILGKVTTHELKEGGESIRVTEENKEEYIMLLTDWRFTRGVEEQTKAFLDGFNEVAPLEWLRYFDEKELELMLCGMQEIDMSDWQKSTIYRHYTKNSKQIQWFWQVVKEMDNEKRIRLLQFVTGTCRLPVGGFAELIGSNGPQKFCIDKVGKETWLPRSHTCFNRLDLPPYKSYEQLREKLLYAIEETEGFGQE
row,Variant,effect of a mutation on the interaction
1,K49E;R56E;V178D,decreasing interaction strength

# Variants of: B1
# Details: with trim9_human TRIM9, Q9C026
row,Variant,effect of a mutation on the interaction
1,K49E;R56E;V178D,decreasing interaction strength

# Variants of: B1
# Details: with kctd8_human KCTD8, Q6ZWB6
row,Variant,effect of a mutation on the interaction
1,K49E;R56E;V178D,decreasing interaction strength

# Variants of: B1
# Details: with nedd4_human NEDD4, P46934
row,Variant,effect of a mutation on the interaction
1,K49E;R56E;V178D,decreasing interaction strength

# Variants of: B1
# Details: with dtl_human DTL
row,Variant,effect of a mutation on the interaction
1,K49E;R56E;V178D,decreasing interaction strength

# Variants of: B1
# Details: with cbl_human CBL
row,Variant,effect of a mutation on the interaction
1,K49E;R56E;V178D,decreasing interaction strength

# Variants of: B1
# Details: with kcna7_human KCNA7, Q96RP8
row,Variant,effect of a mutation on the interaction
1,K49E;R56E;V178D,decreasing interaction strength

# Variants of: B1
# Details: with shkb1_human SHKBP1, Q8TBC3
row,Variant,effect of a mutation on the interaction
1,K49E;R56E;V178D,decreasing interaction strength

# Variants of: B1
# Details: with abtb2_human ABTB2, Q8N961
row,Variant,effect of a mutation on the interaction
1,K49E;R56E;V178D,decreasing interaction strength

# Variants of: B1
# Details: with ned4l_human NEDD4L
row,Variant,effect of a mutation on the interaction
1,K49E;R56E;V178D,decreasing interaction strength

# Variants of: B1
# Details: with sh3r1_human SH3RF1, Q7Z6J0
# Chain of sh3r1_human SH3RF1, Q7Z6J0 (Q7Z6J0 whole entry): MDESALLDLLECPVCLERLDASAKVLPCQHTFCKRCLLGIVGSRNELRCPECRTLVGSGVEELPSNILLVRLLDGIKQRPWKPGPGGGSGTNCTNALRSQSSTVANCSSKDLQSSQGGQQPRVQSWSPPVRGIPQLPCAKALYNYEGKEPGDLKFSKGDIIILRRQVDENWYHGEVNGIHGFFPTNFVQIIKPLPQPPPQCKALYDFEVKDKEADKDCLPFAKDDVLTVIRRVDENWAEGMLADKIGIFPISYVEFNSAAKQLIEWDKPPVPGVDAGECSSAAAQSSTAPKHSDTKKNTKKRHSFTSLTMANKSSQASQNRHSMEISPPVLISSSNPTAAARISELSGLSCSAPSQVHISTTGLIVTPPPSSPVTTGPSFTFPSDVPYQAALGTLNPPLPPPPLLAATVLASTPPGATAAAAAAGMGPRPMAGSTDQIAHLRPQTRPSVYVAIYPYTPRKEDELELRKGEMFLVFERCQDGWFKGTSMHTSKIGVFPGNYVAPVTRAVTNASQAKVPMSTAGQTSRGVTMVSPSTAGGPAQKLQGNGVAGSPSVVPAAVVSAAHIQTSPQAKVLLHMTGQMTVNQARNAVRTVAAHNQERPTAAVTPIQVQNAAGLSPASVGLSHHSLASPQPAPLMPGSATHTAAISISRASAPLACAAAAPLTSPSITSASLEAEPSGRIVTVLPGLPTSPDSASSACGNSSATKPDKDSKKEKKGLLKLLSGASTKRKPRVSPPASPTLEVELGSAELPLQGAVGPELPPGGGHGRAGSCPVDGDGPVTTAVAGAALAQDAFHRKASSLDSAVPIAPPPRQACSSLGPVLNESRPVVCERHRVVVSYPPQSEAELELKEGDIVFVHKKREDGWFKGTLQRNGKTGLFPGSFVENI
row,Variant,effect of a mutation on the interaction
1,K49E;R56E;V178D,decreasing interaction strength

# Variants of: B1
# Details: with braf_human BRAF
row,Variant,effect of a mutation on the interaction
1,K49E;R56E;V178D,decreasing interaction strength

# Variants of: B1
# Details: with FAM110B
row,Variant,effect of a mutation on the interaction
1,K49E;R56E;V178D,decreasing interaction strength

# Variants of: B1
# Details: with iscu_human ISCU
row,Variant,effect of a mutation on the interaction
1,K49E;R56E;V178D,decreasing interaction strength

# Variants of: B1
# Details: with foxo4_human FOXO4, P98177
# Chain of foxo4_human FOXO4, P98177 (P98177 whole entry): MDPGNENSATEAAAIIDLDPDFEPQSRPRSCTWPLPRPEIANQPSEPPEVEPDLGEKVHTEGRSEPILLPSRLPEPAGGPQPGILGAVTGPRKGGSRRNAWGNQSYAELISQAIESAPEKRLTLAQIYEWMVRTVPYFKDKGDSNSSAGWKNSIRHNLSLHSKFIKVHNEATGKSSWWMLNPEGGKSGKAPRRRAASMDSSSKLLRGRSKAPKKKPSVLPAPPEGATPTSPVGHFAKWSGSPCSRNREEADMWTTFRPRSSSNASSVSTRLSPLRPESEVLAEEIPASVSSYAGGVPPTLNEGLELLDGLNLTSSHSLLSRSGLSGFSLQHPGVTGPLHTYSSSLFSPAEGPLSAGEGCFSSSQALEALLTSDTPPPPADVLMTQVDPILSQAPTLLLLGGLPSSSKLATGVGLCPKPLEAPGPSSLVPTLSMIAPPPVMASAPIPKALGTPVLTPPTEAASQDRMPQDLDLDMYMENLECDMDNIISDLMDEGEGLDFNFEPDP
row,Variant,effect of a mutation on the interaction
1,K49E;R56E;V178D,decreasing interaction strength

# Variants of: B1
# Details: with klc4_human KLC4, Q9NSK0
row,Variant,effect of a mutation on the interaction
1,K49E;R56E;V178D,decreasing interaction strength

# Variants of: B1
# Details: with larp1_human LARP1, Q6PKG0
row,Variant,effect of a mutation on the interaction
1,K49E;R56E;V178D,decreasing interaction strength

# Variants of: B1
# Details: with klc3_human KLC3, Q6P597
row,Variant,effect of a mutation on the interaction
1,K49E;R56E;V178D,decreasing interaction strength

# Variants of: B1
# Details: with dnjb1_human DNAJB1, P25685
row,Variant,effect of a mutation on the interaction
1,K49E;R56E;V178D,decreasing interaction strength

# Variants of: B1
# Details: with wee1_human WEE1, P30291
row,Variant,effect of a mutation on the interaction
1,K49E;R56E;V178D,decreasing interaction strength

# Variants of: B1
# Details: with grip1_human GRIP1, Q9Y3R0
row,Variant,effect of a mutation on the interaction
1,K49E;R56E;V178D,decreasing interaction strength

# Variants of: B1
# Details: with KIAA0930, Q6ICG6
row,Variant,effect of a mutation on the interaction
1,K49E;R56E;V178D,decreasing interaction strength

# Variants of: B1
# Details: with ablm1_human ABLIM1, O14639
row,Variant,effect of a mutation on the interaction
1,K49E;R56E;V178D,decreasing interaction strength

# Variants of: B1
# Details: with baip2_human BAIAP2, Q9UQB8
# Chain of baip2_human BAIAP2, Q9UQB8 (Q9UQB8 whole entry): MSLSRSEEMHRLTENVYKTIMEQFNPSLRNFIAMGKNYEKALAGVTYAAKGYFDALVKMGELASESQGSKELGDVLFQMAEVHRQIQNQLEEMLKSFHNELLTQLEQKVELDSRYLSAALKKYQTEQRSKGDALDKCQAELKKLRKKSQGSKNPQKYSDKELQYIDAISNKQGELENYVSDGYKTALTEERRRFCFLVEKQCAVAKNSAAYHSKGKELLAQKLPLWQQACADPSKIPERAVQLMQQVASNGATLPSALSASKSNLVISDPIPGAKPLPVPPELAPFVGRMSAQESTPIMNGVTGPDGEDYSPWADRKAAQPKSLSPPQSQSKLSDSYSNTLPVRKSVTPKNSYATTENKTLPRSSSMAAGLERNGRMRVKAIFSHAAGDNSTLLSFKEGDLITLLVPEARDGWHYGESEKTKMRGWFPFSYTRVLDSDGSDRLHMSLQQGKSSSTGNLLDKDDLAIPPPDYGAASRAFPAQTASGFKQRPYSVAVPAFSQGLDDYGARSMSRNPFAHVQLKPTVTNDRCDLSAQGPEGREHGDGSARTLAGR
row,Variant,effect of a mutation on the interaction
1,K49E;R56E;V178D,decreasing interaction strength

# Variants of: B1
# Details: with nav1_human NAV1, Q8NEY1
row,Variant,effect of a mutation on the interaction
1,K49E;R56E;V178D,decreasing interaction strength

# Variants of: B1
# Details: with pcm1_human PCM1, Q15154
row,Variant,effect of a mutation on the interaction
1,K49E;R56E;V178D,decreasing interaction strength

# Variants of: B1
# Details: with EPB41L2, O43491
row,Variant,effect of a mutation on the interaction
1,K49E;R56E;V178D,decreasing interaction strength

# Variants of: B1
# Details: with kif1b_human KIF1B
row,Variant,effect of a mutation on the interaction
1,K49E;R56E;V178D,decreasing interaction strength

# Variants of: B1
# Details: with clap1_human CLASP1, Q7Z460
row,Variant,effect of a mutation on the interaction
1,K49E;R56E;V178D,decreasing interaction strength

# Variants of: B1
# Details: with pum1_human PUM1, Q14671
row,Variant,effect of a mutation on the interaction
1,K49E;R56E;V178D,decreasing interaction strength

# Variants of: B1
# Details: with klc2_human KLC2, Q9H0B6
row,Variant,effect of a mutation on the interaction
1,K49E;R56E;V178D,decreasing interaction strength

# Variants of: B1
# Details: with foxo1_human FOXO1, Q12778
row,Variant,effect of a mutation on the interaction
1,K49E;R56E;V178D,decreasing interaction strength

# Variants of: B1
# Details: with irs1_human IRS1, P35568
# Chain of irs1_human IRS1, P35568 (P35568 whole entry): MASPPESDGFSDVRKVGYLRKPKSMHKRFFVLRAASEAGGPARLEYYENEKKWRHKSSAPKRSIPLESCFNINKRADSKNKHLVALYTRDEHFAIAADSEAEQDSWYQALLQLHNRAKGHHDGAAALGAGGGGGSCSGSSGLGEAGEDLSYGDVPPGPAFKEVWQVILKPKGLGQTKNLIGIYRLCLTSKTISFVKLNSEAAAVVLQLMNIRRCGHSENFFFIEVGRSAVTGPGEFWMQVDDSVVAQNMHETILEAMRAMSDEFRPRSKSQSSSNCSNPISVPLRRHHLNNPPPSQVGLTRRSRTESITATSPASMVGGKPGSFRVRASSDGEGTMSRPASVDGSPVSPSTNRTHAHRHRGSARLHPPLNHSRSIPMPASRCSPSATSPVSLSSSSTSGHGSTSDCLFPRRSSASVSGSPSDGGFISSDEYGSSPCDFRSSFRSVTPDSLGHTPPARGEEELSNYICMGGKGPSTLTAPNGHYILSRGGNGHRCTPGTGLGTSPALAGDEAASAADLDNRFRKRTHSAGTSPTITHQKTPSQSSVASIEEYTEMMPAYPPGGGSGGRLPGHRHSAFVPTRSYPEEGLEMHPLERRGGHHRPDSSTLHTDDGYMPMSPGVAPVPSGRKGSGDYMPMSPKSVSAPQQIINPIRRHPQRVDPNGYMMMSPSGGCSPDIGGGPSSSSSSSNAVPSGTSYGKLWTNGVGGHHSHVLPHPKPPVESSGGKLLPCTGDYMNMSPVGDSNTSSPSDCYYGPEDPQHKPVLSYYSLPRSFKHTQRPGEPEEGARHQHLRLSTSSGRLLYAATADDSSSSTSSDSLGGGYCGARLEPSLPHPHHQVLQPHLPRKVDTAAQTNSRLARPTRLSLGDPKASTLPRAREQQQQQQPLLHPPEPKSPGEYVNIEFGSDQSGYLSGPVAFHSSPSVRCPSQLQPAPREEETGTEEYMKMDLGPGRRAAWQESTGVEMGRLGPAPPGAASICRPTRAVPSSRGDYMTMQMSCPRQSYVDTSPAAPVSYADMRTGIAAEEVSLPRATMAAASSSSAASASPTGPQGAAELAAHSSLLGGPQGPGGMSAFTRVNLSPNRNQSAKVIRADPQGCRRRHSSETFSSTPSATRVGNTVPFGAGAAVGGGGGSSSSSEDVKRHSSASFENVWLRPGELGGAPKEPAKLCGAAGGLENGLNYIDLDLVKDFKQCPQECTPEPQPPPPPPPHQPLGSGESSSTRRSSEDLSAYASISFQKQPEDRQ
row,Variant,effect of a mutation on the interaction
1,K49E;R56E;V178D,decreasing interaction strength

# Variants of: B1
# Details: with atat_human ATAT1, Q5SQI0
row,Variant,effect of a mutation on the interaction
1,K49E;R56E;V178D,decreasing interaction strength

# Variants of: B1
# Details: with 1433e_human YWHAE
row,Variant,effect of a mutation on the interaction
1,K49E;R56E;V178D,decreasing interaction strength

# — IntAct's records for PubMed 36931259
